Read-outs that look alike come from different tables or passages of the source.
Key:
[1] = target: T1, mouse EpCAM, full length, on transfected CHO-S cells (mouse, UniProt Q99JW5 24-315); test: flow cytometry on CHO-S cells transiently transfected with full length mouse EpCAM, PE anti-human IgG F(ab')2
T1 sequence: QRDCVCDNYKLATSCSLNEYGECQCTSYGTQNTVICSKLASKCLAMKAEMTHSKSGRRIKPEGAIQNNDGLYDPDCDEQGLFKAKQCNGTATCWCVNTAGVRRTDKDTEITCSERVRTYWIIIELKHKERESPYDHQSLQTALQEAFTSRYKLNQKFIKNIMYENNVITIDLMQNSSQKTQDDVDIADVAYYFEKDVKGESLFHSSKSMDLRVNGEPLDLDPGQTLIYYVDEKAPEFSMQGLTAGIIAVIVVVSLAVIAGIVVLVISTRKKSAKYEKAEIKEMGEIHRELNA
Experimental: (§1) Binding of EpCAM antibodies to CHO-S cells transiently transfected with full length human, cynomolgus monkey or mouse EpCAM was analyzed by flow cytometry. […] Cells were washed twice in FACS buffer, re-suspended in 20 μL FACS buffer supplemented with TO-PRO™-3 Iodide (diluted 1:20000; Invitrogen, cat. no. T3605) and analyzed on an iQue screener (Intellicyt Corporation, USA). Binding curves were analyzed by non-linear regression (sigmoidal dose-response with variable slope) using GraphPad Prism V8.4.1 software (GraphPad Software, San Diego, CA, USA).

[2] = target: T2, human EpCAM, full length, on cells (human, UniProt P16422 24-314); test: flow cytometry on CHO-S cells transiently transfected with full length human EpCAM, PE anti-human IgG F(ab')2
T2 construct: also called hEpCAM; EpCAM on DiFi, HPAF-II, A549, OV-90-SC12 and MDA-MB-231_hCLDN6_hEpCAM cells
T2 sequence: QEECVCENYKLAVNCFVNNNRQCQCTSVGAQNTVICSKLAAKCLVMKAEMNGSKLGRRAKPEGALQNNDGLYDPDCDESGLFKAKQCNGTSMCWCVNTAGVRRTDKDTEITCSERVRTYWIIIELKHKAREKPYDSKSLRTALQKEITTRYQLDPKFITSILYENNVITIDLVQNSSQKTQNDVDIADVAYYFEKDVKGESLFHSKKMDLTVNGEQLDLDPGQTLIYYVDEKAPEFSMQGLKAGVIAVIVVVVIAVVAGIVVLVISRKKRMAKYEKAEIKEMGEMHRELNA
Experimental: as §1

[3] = target: T2, human EpCAM, full length, on cells; test: flow cytometry on HPAF-II cells, PE anti-human IgG F(ab')2
Experimental: (§2) Binding to the EpCAM-expressing human tumor cell lines DiFi, HPAF-II and A549 by bivalent EpCAM antibodies or bispecific antibodies carrying one EpCAM-binding arm was analyzed by flow cytometry. […] Next, cells were washed once (A-D) or twice (E) in FACS buffer, re-suspended in 100 μL FACS buffer and analyzed on a BD LSRFortessa FACS (BD Biosciences, USA), Celesta (BD Biosciences, USA) or iQue (Sartorius, Germany). Binding curves were analyzed using non-linear regression (sigmoidal dose-response with variable slope) using GraphPad Prism V7.02 software (GraphPad Software, San Diego, CA, USA).

[4] = target: T2, human EpCAM, full length, on cells; test: flow cytometry on A549 cells, PE anti-human IgG F(ab')2
Experimental: as §2

[5] = target: T2, human EpCAM, full length, on cells; test: flow cytometry on DiFi cells, PE anti-human IgG F(ab')2
Experimental: as §2

[6] = target: T2, human EpCAM, full length, on cells; test: as above; remark: listed apart in the source
Experimental: as §2

[7] = target: T2, human EpCAM, full length, on cells; test: flow cytometry on HPAF-II cells, PE anti-human IgG F(ab')2; remark: listed apart in the source
Experimental: as §2

[8] = target: T2, human EpCAM, full length, on cells; test: as above; remark: listed apart in the source
Experimental: as §2

[9] = target: T2, human EpCAM, full length, on cells; test: flow cytometry on DiFi cells, PE anti-human IgG F(ab')2; remark: listed apart in the source
Experimental: as §2

[10] = target: T1, mouse EpCAM, full length, on …; test: flow cytometry on CHO-S cells transiently transfected with full length mouse EpCAM, PE anti-human IgG F(ab')2; remark: listed apart in the source
Experimental: as §1

[11] = target: T2, human EpCAM, full length, on cells; test: flow cytometry on CHO-S cells transiently transfected with full length human EpCAM, PE anti-human IgG F(ab')2; remark: listed apart in the source
Experimental: as §1

[12] = target: T2, human EpCAM, full length, on cells; test: flow cytometry on HPAF-II cells, PE anti-human IgG F(ab')2; remark: listed apart in the source
Experimental: as §2

[13] = target: T2, human EpCAM, full length, on cells; test: flow cytometry on DiFi cells, PE anti-human IgG F(ab')2; remark: listed apart in the source
Experimental: as §2

B1: IgG1-EpCAM-A37-FEAR (antibody)
heavy: not shown
light: EIELTQSPGTLSLSPGERATLSCRASQTISNNYLAWYQQKRGQAPRLLIYAASSRATGIPDRFSGTGSGTDFTLTISRLEPEDFAVYYCAQGELYPRQFGGGTKLEIKRTVAAPSVFIFPPSDEQLKSGTASVVCLLNNFYPREAKVQWKVDNALQSGNSQESVTEQDSKDSTYSLSSTLTLSKADYEKHKVYACEVTHQGLSSPVTKSFNRGEC
[1]
  EC50 (read off the curve): ~0.01 µg/mL
[2]
  EC50 (read off the curve): ~0.03 µg/mL
[3]
  EC50 (read off the curve): ~0.1 µg/mL
[4]
  EC50 (read off the curve): ~0.2 µg/mL
[5]
  EC50 (read off the curve): ~0.5 µg/mL

B2: IgG1-EpCAM-C52-FEAR (antibody, V domains shown)
VH: QVQLVQSGAEVKKPGASVKVSCKASGGTFSSYAISWVRQAPGQGLEWMGGIVPIFGTANYAQKFQGRVTITADESTSTAYMELSSLRSEDTAVYYCARDPFLHYWGQGTLVTVSS
VL: EIELTQSPGTLSLSPGERATLSCRASQSVSSSYLAWYQQKPGQAPRLLIYGASSRATGIPDRFSGSGSGTDFTLTISRLEPEDFAVYYCAQGELYPRQFGGGTKLDIKR
[6]
  EC50 (read off the curve): ~0.3 µg/mL
[7]
  EC50 (read off the curve): ~0.07 µg/mL

B3: IgG1-EpCAM-323-A3-FEAR (antibody)
heavy: QIQLVQSGPELKKPGETVKISCKASGYTFTNYGMNWVRQASGEGLKWMGWINTYTGEPTYGEDFKGRFAFSLETSASTAYLQINNLKNEDTATYFCARFGNYVDYWGQGTTLTVSSASTKGPSVFPLAPSSKSTSGGTAALGCLVKDYFPEPVTVSWNSGALTSGVHTFPAVLQSSGLYSLSSVVTVPSSSLGTQTYICNVNHKPSNTKVDKRVEPKSCDKTHTCPPCPAPEFEGGPSVFLFPPKPKDTLMISRTPEVTCVVVAVSHEDPEVKFNWYVDGVEVHNAKTKPREEQYNSTYRVVSVLTVLHQDWLNGKEYKCKVSNKALPAPIEKTISKAKGQPREPQVYTLPPSREEMTKNQVSLTCLVKGFYPSDIAVEWESNGQPENNYKTTPPVLDSDGSFFLYSRLTVDKSRWQQGNVFSCSVMHEALHNHYTQKSLSLSPG
light: DIVMTQAAFSNPVTLGTSASISCRSSKNLLHSNGITYLYWYLQKPGQSPHLLIYQMSNLASGVPDRFSSSGSGTDFTLRISRVEAEDVGVYYCAQNLEIPRTFGGGTKLEIKRTVAAPSVFIFPPSDEQLKSGTASVVCLLNNFYPREAKVQWKVDNALQSGNSQESVTEQDSKDSTYSLSSTLTLSKADYEKHKVYACEVTHQGLSSPVTKSFNRGEC
notes: also called IgG1-323-A3-FEAR
[8]
  EC50 (read off the curve): ~0.02 µg/mL
[9]
  EC50 (read off the curve): ~0.08 µg/mL

B4: bsIgG1-b12-FEAL/EpCAM-323-A3-FEAR (bispecific antibody)
heavy 1: QVQLVQSGAEVKKPGASVKVSCQASGYRFSNFVIHWVRQAPGQRFEWMGWINPYNGNKEFSAKFQDRVTFTADTSANTAYMELRSLRSADTAVYYCARVGPYSWDDSPQDNYYMDVWGKGTTVIVSSASTKGPSVFPLAPSSKSTSGGTAALGCLVKDYFPEPVTVSWNSGALTSGVHTFPAVLQSSGLYSLSSVVTVPSSSLGTQTYICNVNHKPSNTKVDKRVEPKSCDKTHTCPPCPAPEFEGGPSVFLFPPKPKDTLMISRTPEVTCVVVAVSHEDPEVKFNWYVDGVEVHNAKTKPREEQYNSTYRVVSVLTVLHQDWLNGKEYKCKVSNKALPAPIEKTISKAKGQPREPQVYTLPPSREEMTKNQVSLTCLVKGFYPSDIAVEWESNGQPENNYKTTPPVLDSDGSFLLYSKLTVDKSRWQQGNVFSCSVMHEALHNHYTQKSLSLSPG
light 1: EIVLTQSPGTLSLSPGERATFSCRSSHSIRSRRVAWYQHKPGQAPRLVIHGVSNRASGISDRFSGSGSGTDFTLTITRVEPEDFALYYCQVYGASSYTFGQGTKLERKRTVAAPSVFIFPPSDEQLKSGTASVVCLLNNFYPREAKVQWKVDNALQSGNSQESVTEQDSKDSTYSLSSTLTLSKADYEKHKVYACEVTHQGLSSPVTKSFNRGEC
heavy 2: QIQLVQSGPELKKPGETVKISCKASGYTFTNYGMNWVRQASGEGLKWMGWINTYTGEPTYGEDFKGRFAFSLETSASTAYLQINNLKNEDTATYFCARFGNYVDYWGQGTTLTVSSASTKGPSVFPLAPSSKSTSGGTAALGCLVKDYFPEPVTVSWNSGALTSGVHTFPAVLQSSGLYSLSSVVTVPSSSLGTQTYICNVNHKPSNTKVDKRVEPKSCDKTHTCPPCPAPEFEGGPSVFLFPPKPKDTLMISRTPEVTCVVVAVSHEDPEVKFNWYVDGVEVHNAKTKPREEQYNSTYRVVSVLTVLHQDWLNGKEYKCKVSNKALPAPIEKTISKAKGQPREPQVYTLPPSREEMTKNQVSLTCLVKGFYPSDIAVEWESNGQPENNYKTTPPVLDSDGSFFLYSRLTVDKSRWQQGNVFSCSVMHEALHNHYTQKSLSLSPG
light 2: DIVMTQAAFSNPVTLGTSASISCRSSKNLLHSNGITYLYWYLQKPGQSPHLLIYQMSNLASGVPDRFSSSGSGTDFTLRISRVEAEDVGVYYCAQNLEIPRTFGGGTKLEIKRTVAAPSVFIFPPSDEQLKSGTASVVCLLNNFYPREAKVQWKVDNALQSGNSQESVTEQDSKDSTYSLSSTLTLSKADYEKHKVYACEVTHQGLSSPVTKSFNRGEC
[10]
  EC50 (read off the curve): ~0.05 µg/mL
[11]
  EC50 (read off the curve): ~0.1 µg/mL

B5: IgG1-EpCAM-UBS-54-FEAR (antibody, V domains shown)
VH: QVQLVQSGAEVKKPGSSVRVSCKASGGTFSSYAISWVRQAPGQGLEWMGGIIPIFGTANYAQKFQGRVTITADESTSTAYMELSSLRSEDTAVYYCARDPFLHYWGQGTLVTVSS
VL: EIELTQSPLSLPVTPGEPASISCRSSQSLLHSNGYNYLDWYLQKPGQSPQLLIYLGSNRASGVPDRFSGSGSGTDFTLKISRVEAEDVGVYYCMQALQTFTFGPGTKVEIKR
[2]
  EC50 (read off the curve): ~0.04 µg/mL
[12]
  EC50 (read off the curve): ~0.2 µg/mL
[13]
  EC50 (read off the curve): ~0.4 µg/mL

Reference: patent US20260184809A1 (Genmab, published 2026)
